US20190041402A1 (GOVERNING COUNCIL OF THE UNIVERSITY OF TORONTO, published 2019)

Assays:
[1] = molecular target: T1, extracellular domain (ECD) of human αKlotho, amino acids E34-S981 with C-terminal 6-His tag (R&D Systems … (human, UniProt Q9UEF7 34-981)); test: SPR, Fab captured by anti-H+L IgG, αKlotho injected at 50 to 6.25 ug/ml, Langmuir fit
T1 construct: range 34-981; also called αKlotho (aa34-981); target antigen
T1 sequence: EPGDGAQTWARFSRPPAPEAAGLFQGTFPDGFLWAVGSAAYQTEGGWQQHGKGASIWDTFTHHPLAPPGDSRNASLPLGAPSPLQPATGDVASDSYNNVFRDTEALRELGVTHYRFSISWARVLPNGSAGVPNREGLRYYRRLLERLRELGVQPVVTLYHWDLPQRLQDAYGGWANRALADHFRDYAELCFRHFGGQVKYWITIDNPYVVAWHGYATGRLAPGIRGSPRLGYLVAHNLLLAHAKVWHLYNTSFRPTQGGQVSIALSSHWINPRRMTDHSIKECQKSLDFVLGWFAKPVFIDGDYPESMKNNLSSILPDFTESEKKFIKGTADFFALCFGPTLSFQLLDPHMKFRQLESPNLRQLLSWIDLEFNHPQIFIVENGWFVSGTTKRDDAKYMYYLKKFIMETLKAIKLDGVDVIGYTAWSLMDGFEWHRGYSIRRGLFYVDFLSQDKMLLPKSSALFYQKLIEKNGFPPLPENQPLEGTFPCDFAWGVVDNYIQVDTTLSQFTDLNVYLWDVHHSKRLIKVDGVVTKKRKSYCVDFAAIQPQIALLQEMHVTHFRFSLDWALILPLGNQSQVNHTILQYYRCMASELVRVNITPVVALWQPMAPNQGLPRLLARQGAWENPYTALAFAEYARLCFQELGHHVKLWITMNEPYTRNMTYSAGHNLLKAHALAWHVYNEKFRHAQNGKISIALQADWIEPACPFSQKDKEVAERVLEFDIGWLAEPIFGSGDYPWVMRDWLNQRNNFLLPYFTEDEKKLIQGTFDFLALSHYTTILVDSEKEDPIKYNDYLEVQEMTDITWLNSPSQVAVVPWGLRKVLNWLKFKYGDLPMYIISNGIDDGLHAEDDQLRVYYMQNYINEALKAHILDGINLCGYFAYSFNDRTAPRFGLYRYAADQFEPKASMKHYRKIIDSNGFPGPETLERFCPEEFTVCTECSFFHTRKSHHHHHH
Method: Affinity estimates for each of the antibodies were determined by surface plasmon resonance (SPR). Fabs were immobilized using an anti-H+L antibody and serial dilutions of αKlotho were injected.

neutravidin = molecular target: T2, neutravidin (UniProt P02701 25-152); test: Fab ELISA, Fab 5 ug/ml on immobilised antigen, anti-Flag-HRP, A450
T2 construct: also called NA; NAV
T2 sequence (P02701 25-152): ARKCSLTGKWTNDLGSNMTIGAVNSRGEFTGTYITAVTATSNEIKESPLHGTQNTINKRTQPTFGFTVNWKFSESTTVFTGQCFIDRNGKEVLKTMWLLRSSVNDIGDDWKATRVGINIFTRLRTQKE
Method: (§1) Fab ELISA using both human and mouse αKlotho was carried out for assessing cross-reactivity to human and mouse αKlotho (FIG. 16). Fabs (5 ug/ml) were incubated with immobilized αKlotho human, mouse, or neutravidin (NA) and SBA as negative controls. After washing off unbound Fab, bound Fab were detected using an HRP-conjugated anti-Flag antibody (Fabs have Falg tag on the end of their light chains). Colorimetric HRP reagents allow for absorbance readings at 450 nm.

bovine serum albumin = molecular target: T3, bovine serum albumin (bovine, UniProt P02769 25-607); test: as above
T3 construct: also called BSA
T3 sequence (P02769 25-607 limits assumed): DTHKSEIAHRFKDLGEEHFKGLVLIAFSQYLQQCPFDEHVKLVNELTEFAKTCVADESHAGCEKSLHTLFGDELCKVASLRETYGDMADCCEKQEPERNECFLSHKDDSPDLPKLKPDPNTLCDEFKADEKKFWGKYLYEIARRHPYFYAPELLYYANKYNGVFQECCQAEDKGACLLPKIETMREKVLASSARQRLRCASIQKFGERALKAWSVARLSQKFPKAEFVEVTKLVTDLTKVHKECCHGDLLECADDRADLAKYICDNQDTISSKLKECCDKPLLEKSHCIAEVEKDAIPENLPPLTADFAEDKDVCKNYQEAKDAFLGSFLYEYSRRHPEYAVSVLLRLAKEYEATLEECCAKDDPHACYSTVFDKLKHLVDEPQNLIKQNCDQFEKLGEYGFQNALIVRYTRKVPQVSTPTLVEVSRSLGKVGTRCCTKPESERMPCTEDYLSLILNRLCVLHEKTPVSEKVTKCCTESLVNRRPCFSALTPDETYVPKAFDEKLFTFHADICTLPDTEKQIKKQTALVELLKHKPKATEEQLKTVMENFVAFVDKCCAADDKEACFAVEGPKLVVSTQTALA
Method: as §1

[2] = molecular target: T4, human FGFR1c ligand-binding domain (human, UniProt P11362 142-365); test: Fab-phage ELISA, immobilised antigen
T4 construct: range 142-365; also called FGFR1c alone
T4 sequence (looked up): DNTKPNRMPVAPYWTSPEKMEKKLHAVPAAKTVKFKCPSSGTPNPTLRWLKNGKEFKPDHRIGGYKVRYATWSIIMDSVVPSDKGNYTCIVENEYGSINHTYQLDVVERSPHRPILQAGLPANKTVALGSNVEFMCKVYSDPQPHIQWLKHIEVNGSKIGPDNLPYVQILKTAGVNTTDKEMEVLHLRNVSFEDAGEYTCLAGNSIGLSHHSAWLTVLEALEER

[3] = molecular target: T5, soluble human αKlotho (recombinant) (human, UniProt Q9UEF7 34-981); test: SPR (ProteOn XPR36), Fab captured by anti-IgG(H+L), human αKlotho injected in serial dilutions, Langmuir fit [continued) B.]
T5 construct: also called Hu aKL; recombinant human αKlotho
T5 sequence (looked up): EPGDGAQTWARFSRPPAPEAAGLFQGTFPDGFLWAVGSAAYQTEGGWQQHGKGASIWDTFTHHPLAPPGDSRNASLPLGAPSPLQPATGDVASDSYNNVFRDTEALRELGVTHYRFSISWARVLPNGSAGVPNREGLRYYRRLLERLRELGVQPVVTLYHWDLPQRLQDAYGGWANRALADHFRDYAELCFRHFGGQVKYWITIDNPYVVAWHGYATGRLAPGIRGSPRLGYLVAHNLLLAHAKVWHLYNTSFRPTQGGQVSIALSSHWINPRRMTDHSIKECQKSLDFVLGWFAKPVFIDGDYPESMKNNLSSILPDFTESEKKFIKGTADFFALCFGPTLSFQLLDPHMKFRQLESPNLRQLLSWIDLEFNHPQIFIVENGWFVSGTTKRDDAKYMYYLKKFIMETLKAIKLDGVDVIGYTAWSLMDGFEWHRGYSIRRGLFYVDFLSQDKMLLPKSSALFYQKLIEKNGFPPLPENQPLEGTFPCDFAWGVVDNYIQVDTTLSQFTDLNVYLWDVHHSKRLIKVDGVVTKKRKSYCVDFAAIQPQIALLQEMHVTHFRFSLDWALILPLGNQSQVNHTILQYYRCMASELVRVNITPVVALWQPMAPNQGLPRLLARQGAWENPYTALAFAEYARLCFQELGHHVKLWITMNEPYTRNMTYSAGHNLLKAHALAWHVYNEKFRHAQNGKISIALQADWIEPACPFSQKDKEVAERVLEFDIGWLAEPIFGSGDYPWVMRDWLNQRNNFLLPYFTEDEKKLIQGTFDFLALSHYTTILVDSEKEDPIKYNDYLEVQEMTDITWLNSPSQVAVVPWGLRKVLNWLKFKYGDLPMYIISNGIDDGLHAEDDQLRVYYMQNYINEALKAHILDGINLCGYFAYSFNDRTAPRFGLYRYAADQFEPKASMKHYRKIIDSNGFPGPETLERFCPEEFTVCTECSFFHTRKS
Method: Estimated affinities against human and mouse antigen for select αKlotho Fabs were obtained by surface plasmon resonance on a ProteOn XPR36 (FIG. 17). Fabs were captured using an anti-IgG(H+L) antibody and serial dilutions of αKlotho were injected. Binding curves were fitted to the Langmuir model. (A) Determined Kon, Koff and KD values. (B) and (C) Binding curves for human and mouse antigen respectively.

B1: sb106 Fab (Fab, V domains shown)
VH: EVQLVESGGGLVQPGGSLRLSCAASGFNISYYSIHWVRQAPGKGLEWVAYISPSYGYTSYADSVKGRFTISADTSKNTAYLQMNSLRAEDTAVYYCARYYVYASHGWAGYGMDYWGQGTLVTVSS
VL: DIQMTQSPSSLSASVGDRVTITCRASQSVSSAVAWYQQKPGKAPKLLIYSASSLYSGVPSRFSGSRSGTDFTLTISSLQPEDFATYYCQQAGYSPITFGQGTKVEIKR
notes: also called Fsb106; clone 48
[1]
  Kd: 1.08 nM
  koff: 0.000389 s⁻¹
  kon: 360000 M⁻¹ s⁻¹
neutravidin
  binding result: no binding (tested: 5 ug/ml)
Bovine serum albumin
  binding result: no binding (tested: 5 ug/ml)
[2]
  binding result: no binding
[3]
  Kd: 1.02 nM
  koff: 0.000315 s⁻¹
  kon: 308000 M⁻¹ s⁻¹
